± gives the uncertainty stated by the source.
B1: SAM and SH3 domain-containing protein 1, residues 630 to 700; numbered along this chain, O94885 (parent)
chain: GRPPQPKSVEDLLDRINLKEHMPTFLFNGYEDLDTFKLLEEEDLDELNIRDPEHRAVLLTAVELLQEYDSN

Variants of: B1
Experiment: abundance fitness (aPCA) (normalised: wild type 0, dead -1); higher = more abundant; growth selection in yeast, the domain comes from the species named
Details: Homo sapiens

| Variant | abundance fitness |
| --- | --- |
| A61M | -0.324 ± 0.055 |
| A61Q | -0.036 ± 0.057 |
| A61Y | -0.609 ± 0.082 |
| A61C | -0.483 ± 0.073 |
| E31V | -0.003 ± 0.035 |
| E31I | -0.288 ± 0.049 |
| E31L | -0.37 ± 0.036 |
| E31R | 0.127 ± 0.032 |
| Q66F | -0.694 ± 0.061 |
| Q66G | -0.197 ± 0.052 |
| Q66D | -0.49 ± 0.064 |
| G1E | 0.166 ± 0.074 |
| G1I | 0.047 ± 0.082 |
| G1Q | 0.109 ± 0.16 |
| G1N | 0.17 ± 0.082 |
| N48S | -0.388 ± 0.08 |
| N48F | -0.983 ± 0.19 |
| N48G | 0.197 ± 0.057 |
| N48H | -0.056 ± 0.12 |
| D69F | -0.811 ± 0.093 |
| D69G | -0.132 ± 0.056 |
| D69S | -0.296 ± 0.04 |
| D69H | -0.327 ± 0.056 |
| E20H | -0.484 ± 0.074 |

| Variant | abundance fitness |
| --- | --- |
| E20Y | -0.84 ± 0.1 |
| E20S | -0.332 ± 0.053 |
| E20C | -0.124 ± 0.063 |
| E20V | -0.203 ± 0.054 |
| E20N | -0.455 ± 0.084 |
| E20R | -0.596 ± 0.064 |
| L58C | -0.82 ± 0.1 |
| L58W | -0.819 ± 0.11 |
| L58Y | -0.905 ± 0.11 |
| L58Q | -0.468 ± 0.073 |
| L58V | -0.53 ± 0.06 |
| L65P | -0.88 ± 0.08 |
| L65I | -0.433 ± 0.052 |
| L65K | -0.812 ± 0.084 |
| L65A | -0.625 ± 0.065 |
| D32E | -0.275 ± 0.055 |
| D32L | -0.767 ± 0.046 |
| D32W | -0.75 ± 0.069 |
| D32A | -0.579 ± 0.056 |
| D32M | -0.682 ± 0.06 |
| V9R | -0.969 ± 0.084 |
| V9L | 0.032 ± 0.035 |
| V9W | -1.05 ± 0.17 |
| V9T | -0.701 ± 0.056 |

| Variant | abundance fitness |
| --- | --- |
| V9H | -0.909 ± 0.079 |
| V9K | -0.701 ± 0.077 |
| V9E | -0.876 ± 0.13 |
| N71I | -0.117 ± 0.054 |
| N71Q | 0.121 ± 0.059 |
| N71G | 0.041 ± 0.053 |
| N71V | 0.035 ± 0.053 |
| N71K | 0.007 ± 0.058 |
| N71M | -0.071 ± 0.072 |
| D14M | -0.34 ± 0.066 |
| D14K | -0.273 ± 0.065 |
| D14S | -0.168 ± 0.039 |
| D14Y | -0.602 ± 0.069 |
| N28Q | -0.644 ± 0.077 |
| N28R | -0.607 ± 0.049 |
| N28K | -0.426 ± 0.064 |
| N28Y | -0.208 ± 0.048 |
| N28G | -0.157 ± 0.043 |
| N28D | -0.812 ± 0.091 |
| N28W | -0.553 ± 0.071 |
| N28H | 0.109 ± 0.041 |
| F25G | -0.882 ± 0.076 |
| F25S | -0.706 ± 0.056 |
| F25M | -0.676 ± 0.073 |

| Variant | abundance fitness |
| --- | --- |
| F25Y | -0.893 ± 0.091 |
| F25Q | -0.778 ± 0.078 |
| F25C | -0.701 ± 0.08 |
| L59G | -0.511 ± 0.052 |
| L59S | -0.514 ± 0.043 |
| L59A | -0.569 ± 0.053 |
| L59H | -0.564 ± 0.058 |
| P52F | -1.04 ± 0.11 |
| P52L | -0.61 ± 0.042 |
| P6C | -0.507 ± 0.071 |
| P6D | -0.158 ± 0.058 |
| P6F | 0.085 ± 0.046 |
| F36W | -0.712 ± 0.089 |
| F36C | -0.849 ± 0.087 |
| F36G | -0.642 ± 0.064 |
| F36N | -0.719 ± 0.091 |
| F36I | -0.531 ± 0.069 |
| F36A | -0.717 ± 0.067 |
| F36V | -0.495 ± 0.051 |
| F36Q | -0.705 ± 0.11 |
| F27H | 0.246 ± 0.042 |
| F27L | 0.346 ± 0.031 |
| F27D | 0.446 ± 0.046 |
| F27K | 0.507 ± 0.04 |

| Variant | abundance fitness |
| --- | --- |
| F27W | -0.449 ± 0.054 |
| F27P | -0.655 ± 0.061 |
| Q5K | -0.258 ± 0.061 |
| Q5G | -0.694 ± 0.093 |
| Q5D | -0.783 ± 0.12 |
| P3D | 0.2 ± 0.053 |
| P3N | -0.038 ± 0.049 |
| P3L | -0.036 ± 0.036 |
| P3F | 0.044 ± 0.048 |
| P3Y | 0.005 ± 0.047 |
| P3H | -0.094 ± 0.047 |
| P3E | 0.04 ± 0.056 |
| S8N | -0.305 ± 0.053 |
| S8M | -1.03 ± 0.14 |
| S8C | -0.701 ± 0.087 |
| E40G | 0.171 ± 0.044 |
| E40T | 0.398 ± 0.035 |
| E40K | 0.347 ± 0.046 |
| E40Y | -0.829 ± 0.069 |
| E40C | 0.186 ± 0.042 |
| G29W | -0.937 ± 0.11 |
| G29Q | -0.959 ± 0.093 |
| G29E | -0.844 ± 0.1 |
| G29T | -0.917 ± 0.073 |

| Variant | abundance fitness |
| --- | --- |
| G29F | -1.2 ± 0.14 |
| L12T | -0.829 ± 0.071 |
| P23T | -0.019 ± 0.04 |
| P23D | 0.199 ± 0.047 |
| P23S | 0.038 ± 0.037 |
| P23H | -0.243 ± 0.052 |
| P23M | -0.268 ± 0.061 |
| P23I | -0.398 ± 0.063 |
| P23Y | -0.271 ± 0.052 |
| P23N | 0.102 ± 0.043 |
| R50E | -0.146 ± 0.057 |
| R50D | -0.057 ± 0.051 |
| R50L | 0.091 ± 0.035 |
| R50F | -0.071 ± 0.049 |
| R50G | -0.371 ± 0.05 |
| R50S | -0.06 ± 0.036 |
| T24M | -0.379 ± 0.056 |
| T24N | -0.314 ± 0.051 |
| T24K | -0.079 ± 0.046 |
| T24R | -0.367 ± 0.04 |
| T24D | -0.622 ± 0.064 |
| T24C | -0.474 ± 0.057 |
| L33Q | -0.73 ± 0.11 |
| L33W | -1.19 ± 0.17 |

| Variant | abundance fitness |
| --- | --- |
| L33C | -0.881 ± 0.11 |
| L33K | -1 ± 0.13 |
| L33S | -0.812 ± 0.066 |
| L33F | -0.697 ± 0.087 |
| L38R | -0.041 ± 0.037 |
| L38M | -0.011 ± 0.05 |
| L39R | -0.861 ± 0.059 |
| L39E | -0.771 ± 0.1 |
| K7A | -0.066 ± 0.046 |
| K7S | -0.097 ± 0.038 |
| K7H | -0.308 ± 0.047 |
| L26R | -0.111 ± 0.039 |
| L26C | -0.464 ± 0.073 |
| L26E | -0.188 ± 0.05 |
| L26P | -0.825 ± 0.073 |
| S70F | -0.508 ± 0.23 |
| E42T | 0.035 ± 0.039 |
| E42A | 0.104 ± 0.04 |
| E42N | -0.094 ± 0.046 |
| E10V | -0.413 ± 0.053 |
| E10N | -0.53 ± 0.061 |
| E10S | -0.423 ± 0.046 |
| E10F | -0.443 ± 0.054 |

Source: the Human Domainome abundance scans (Beltran et al. 2025)
